Assay results from patent publication US20240336947.

Target: deglucosylated type IV collagen

B1: R699, mimiviral collagen galactosylhydroxylysyl glucosyltransferase (GGT) (protein)
chain: MEQSNNDDNLLVLGIGISVHKTDGVLRFEKYCQAHNLQYMIVGEGKKWNGGNLESEAGGGQKINELLIALESIKDNKLIVVCDTYDLIPLSGPEEILRKYRFLTPDNKVVFSSELYCWPDASLVERYPKVDTKYKYLNSGAFMGYRDDIYEMIKNGVKDRDDDQLFFSIKFIETDKIVLDYKCELFQAMYRCNSDLVVHKNRIFNGYTNSYPVFAHGNGPAKKLLNHMEGYFMTEPIDGSSNTINTFKLDNEPKVFFALYVDSNDLSALKQFLGKVASIQYGNKVIYLYDRSDNEQNRKLIQISYPNYHTGVTKYVFDDFKKSDAQFYFLLEQNCIITKKDILHELIMQVKDNHRVISPMIGYEQNSTRTNFWGDIEDGYYKRSENYLDLAKHKVRGLWNVPYVYGVILMHESVVRNWDLSMVKYNDKDMDLCFSLRKHTIFMYMINNNNYGYMV
- glucosylation of type IV collagen detected by LC-MS with UDP-[UL-13C6]-glucose: R699 (FIG. 4C,4D) glucosylates collagen peptidyl galactosylhydroxylysine to [13C6]-glucosylgalactosylhydroxylysine
